Measured values: article PMC10509353, “Increased intracellular persulfide levels attenuate HlyU-mediated hemolysin transcriptional activation in Vibrio cholerae” (The Journal of Biological Chemistry, 2023)

B1: Vibrio cholerae HlyU (natural protein)
chain: MPYLKGAPMNLQEMEKNSAKAVVLLKAMANERRLQILCMLLDNELSVGELSSRLELSQSALSQHLAWLRRDGLVNTRKEAQTVFYTLSSTEVKAMIELLHRLYCQANQ
notes: also called VcHlyU; WT HlyU
B2: hlyO operator (hlyA promoter) (dsDNA)
DNA 1: TATAAATTAATTCAGACTAAATTAGTTCAAA
DNA 2: TTTGAACTAATTTAGTCTGAATTAATTTATA

How the values were obtained:
[1] = target: the molecule itself; experiment: SEC; calibrated Superdex 75 gel-filtration column; 25 mM MES, 0.2 M NaCl, 2 mM EDTA, 2 mM TCEP, 5% glycerol, pH 6, 25 °C
HlyU (VcHlyU), WT [2] = target: T1, HlyU (VcHlyU), WT (Vibrio cholerae, UniProt P52695 1-108); experiment: fluorescence anisotropy; HlyU pretreated with 5-fold H2O2; text: no change in affinity; n=3; Table 1: 25 mM Hepes pH 7, 100 mM NaCl, 1 mM EDTA, 25 °C; Methods: 10 mM Hepes pH 7.0, 0.1 M NaCl, with or without 2 mM TCEP, 10 nM DNA; details: protein: recombinant; chain copies: 2; label: 5'-fluorescein on strand 1; blunt
T1 sequence: B1 chain

HlyU (VcHlyU), WT [3] = target: T1, HlyU (VcHlyU), WT; experiment: fluorescence anisotropy; reduced HlyU (TCEP), 100 mM NaCl; n=4; Table 1: 25 mM Hepes pH 7, 100 mM NaCl, 1 mM EDTA, 25 °C; Methods: 10 mM Hepes pH 7.0, 0.1 M NaCl, with or without 2 mM TCEP, 10 nM DNA; details: protein: recombinant; chain copies: 2; label: 5'-fluorescein on strand 1; blunt

Row | Binder | stoichiometry N [1] | Ka (HlyU (VcHlyU), WT [2]) | Ka (HlyU (VcHlyU), WT [3])
1 | B1 | 2 | – | –
2 | B2 | – | 0.19 ± 0.03 10^9 M^-1 | 0.4 ± 0.08 10^9 M^-1
